Assay [1] has as its target trypsin. In words: Fab TRF, 2.4 ug/mL Fab.
Assay [2] deals with trypsin. Kind of assay: Fab TRF, 0.6 ug/mL Fab.
Assay [3] concerns the target trypsin. Kind of assay: Fab TRF, 10 ug/mL Fab.
Assay [4] deals with trypsin. Kind of assay: monoclonal phage TRF.

B1: KB_A01 (scFv, V domains shown)
VH: EVQLVESGGGLVRPGGSLRLSCAASGFTFSSYAMSWVRQAPGKGLEWVSAISGSGGSTYYADSVKGRFTISRDNTKNSLYLQMTSLRADDTAFYYCVKDFGPGYGTGWFDYWGPGTLVTVSS
VL: YLNWYQQKPGKAPKLLIYAAEVCPRILMRCKQDSDCLAGCVCGPNGFCGGTSGVPSRFSGSRSGTEFTLTISSLQPEDFATYYCQKVDDYPLTFGGGTKVEIKR
With B1, the TRF signal with trypsin [1] was 16600; in the assay with trypsin [2], 2390; in the assay with trypsin [3], 55600. The Tryspin binding signal (FU) in the assay with trypsin [4] amounted to 20200 FU.

B2: KB_C07 (scFv, V domains shown)
VH: EVQLVESGGGLVRPGGSLRLSCAASGFTFSSYAMSWVRQAPGKGLEWVSAISGSGGSTYYADSVKGRFTISRDNTKNSLYLQMTSLRADDTAFYYCVKDFGPGYGTGWFDYWGPGTLVTVSS
VL: AVNWYQQLPGKAPKLLIYAAVGCPRILMRCKQDSDCLAGCVCGPNGFCGSASGVSDRFSGSKSGTSASLAISGLRSEDEADYYCASWDDSLRGYVFGTGTKVTVLG
With B2, the TRF signal worked out at 247000 in the assay with trypsin [1], 153000 with trypsin [2] and 276000 in the assay with trypsin [3]. Further, the Tryspin binding signal (FU) in the assay with trypsin [4] came out at 43300 FU.

B3: KB_A05 (scFv, V domains shown)
VH: EVQLVESGGGLVRPGGSLRLSCAASGFTFSSYAMSWVRQAPGKGLEWVSAISGSGGSTYYADSVKGRFTISRDNTKNSLYLQMTSLRADDTAFYYCVKDFGPGYGTGWFDYWGPGTLVTVSS
VL: AVNWYQQLPGKAPKLLIYAADKCPRILMRCKQDSDCLAGCVCGPNGFCGGGSGIPERFSGSKSGTSASLAISGLRSEDEADYYCATWDDNLNGVVFGGGTKLTVLG
On to B3, for which the TRF signal with trypsin [1] turned out to be 65400; with trypsin [2], 46700; with trypsin [3] it was 218000. The same molecule gave a Tryspin binding signal (FU) with trypsin [4] of 121000 FU.

B4: KB_B11 (scFv, V domains shown)
VH: EVQLVESGGGLVRPGGSLRLSCAASGFTFSSYAMSWVRQAPGKGLEWVSAISGSGGSTYYADSVKGRFTISRDNTKNSLYLQMTSLRADDTAFYYCVKDFGPGYGTGWFDYWGPGTLVTVSS
VL: TQPPSVSEAPRQRVTITCGSRPCPRILMRCKQDSDCLAGCVCGPNGFCGSHNWYQQLPGSSPTTVIYEDNQRPSGVPDRFSGSIDRSSNSASLTISGLKTEDEADYYCQSYDSSNHRVVFGGGTKLTVLG
The molecule B4 registered a Tryspin binding signal (FU) in the assay with trypsin [4] of 10300 FU.

B5: KB_A10 (scFv, V domains shown)
VH: EVQLVESGGGLVRPGGSLRLSCAASGFTFSSYAMSWVRQAPGKGLEWVSAISGSGGSTYYADSVKGRFTISRDNTKNSLYLQMTSLRADDTAFYYCVKDFGPGYGTGWFDYWGPGTLVTVSS
VL: AVNWYQQLPGKAPKLLIYAAGGCPRILMRCKQDSDCLAGCVCGPNGFCGSNSGVPDRFSGSKSGNTASLTISGLQSEDEADYYCAAWDDSLSGVVFGGGTQLTVLG
With B5, the TRF signal in the assay with trypsin [1] turned out to be 71900; in the assay with trypsin [2] it was 14600; with trypsin [3], 68700. Further, the Tryspin binding signal (FU) with trypsin [4] is 38800 FU.

B6: KB_B12 (scFv, V domains shown)
VH: EVQLVESGGGLVRPGGSLRLSCAASGFTFSSYAMSWVRQAPGKGLEWVSAISGSGGSTYYADSVKGRFTISRDNTKNSLYLQMTSLRADDTAFYYCVKDFGPGYGTGWFDYWGPGTLVTVSS
VL: TQPPSVSEAPRQRVTITCGERPCPRILMRCKQDSDCLAGCVCGPNGFCGANNWYQQLPGSSPTTVIYEDNQRPSGVPDRFSGSIDSSSNSASLTISGLKTEDEADYYCQSYDSSNQVFGGGTKVTVLG
Turning to B6, the Tryspin binding signal (FU) in the assay with trypsin [4] came out at 17400 FU.

B7: KB_A11 (scFv, V domains shown)
VH: EVQLVESGGGLVRPGGSLRLSCAASGFTFSSYAMSWVRQAPGKGLEWVSAISGSGGSTYYADSVKGRFTISRDNTKNSLYLQMTSLRADDTAFYYCVKDFGPGYGTGWFDYWGPGTLVTVSS
VL: YLNWYQQKPGKAPKLLIYAAEICPRILMRCKQDSDCLAGCVCGPNGFCGPSSGIPARFSGSGYGTDFTLTINNIESEDAAYYFCLQHDNFPYTFGQGTKVEIKR
As to B7, the TRF signal in the assay with trypsin [1] was 141000; with trypsin [2], 48900; in the assay with trypsin [3], 212000. In the assay with trypsin [4], this molecule displayed a Tryspin binding signal (FU) of 16400 FU.

B8: KB_C09 (scFv, V domains shown)
VH: EVQLVESGGGLVRPGGSLRLSCAASGFTFSSYAMSWVRQAPGKGLEWVSAISGSGGSTYYADSVKGRFTISRDNTKNSLYLQMTSLRADDTAFYYCVKDFGPGYGTGWFDYWGPGTLVTVSS
VL: AVNWYQQLPGKAPKLLIYAAGRCPRILMRCKQDSDCLAGCVCGPNGFCGGGSGVPDRFSGSIDSSSNSASLTISGLRAEDEADYYCQSYDSSNHWVFGGGTKLTVLG
As to B8, the TRF signal with trypsin [1] was 205000; in the assay with trypsin [2], 46800; with trypsin [3] it was 289000. Moreover, in the assay with trypsin [4], the Tryspin binding signal (FU) stood at 89400 FU.

B9: KB_A02 (scFv, V domains shown)
VH: EVQLVESGGGLVRPGGSLRLSCAASGFTFSSYAMSWVRQAPGKGLEWVSAISGSGGSTYYADSVKGRFTISRDNTKNSLYLQMTSLRADDTAFYYCVKDFGPGYGTGWFDYWGPGTLVTVSS
VL: AVNWYQQLPGKAPKLLIYAAAKCPRILMRCKQDSDCLAGCVCGPNGFCGGASGVSDRFSGSIDSSSNSASLTISGLKPEDEGDYYCQSYDSSNRWVFGGGTKVTVLG
In the case of B9, the values for the TRF signal in the assay with trypsin [1], with trypsin [2] and with trypsin [3] were 221000, 93800 and 255000, respectively. The Tryspin binding signal (FU) in the assay with trypsin [4] came out at 183000 FU.

B10: KB_B01 (scFv, V domains shown)
VH: EVQLVESGGGLVRPGGSLRLSCAASGFTFSSYAMSWVRQAPGKGLEWVSAISGSGGSTYYADSVKGRFTISRDNTKNSLYLQMTSLRADDTAFYYCVKDFGPGYGTGWFDYWGPGTLVTVSS
VL: AVNWYQQLPGKAPKLLIYAAAGCPRILMRCKQDSDCLAGCVCGPNGFCGTRSGVSDRFSGSKSGTSASLAISGLRSEDEADYYCAAWDDSLRAYVFGTGTKLTVLG
Turning to B10, the figures for the TRF signal in the assay with trypsin [1], with trypsin [2] and with trypsin [3] were 153000, 54800 and 257000, respectively. In the assay with trypsin [4], this molecule displayed a Tryspin binding signal (FU) of 57700 FU.

B11: KB_C10 (scFv, V domains shown)
VH: EVQLVESGGGLVRPGGSLRLSCAASGFTFSSYAMSWVRQAPGKGLEWVSAISGSGGSTYYADSVKGRFTISRDNTKNSLYLQMTSLRADDTAFYYCVKDFGPGYGTGWFDYWGPGTLVTVSS
VL: AVNWYQQLPGKAPKLLIYAAGPCPRILMRCKQDSDCLAGCVCGPNGFCGADSGVSDRFSGSKSGTSASLAITGLQAEDEGDYYCAAWDDSLNGLVFGGGTKVTVLG
As for B11, the TRF signal was determined as 146000 in the assay with trypsin [1], 41700 in the assay with trypsin [2] and 238000 with trypsin [3]. The molecule also came in with a Tryspin binding signal (FU) with trypsin [4] of 119000 FU.

B12: KB_A09 (scFv, V domains shown)
VH: EVQLVESGGGLVRPGGSLRLSCAASGFTFSSYAMSWVRQAPGKGLEWVSAISGSGGSTYYADSVKGRFTISRDNTKNSLYLQMTSLRADDTAFYYCVKDFGPGYGTGWFDYWGPGTLVTVSS
VL: AVNWYQQLPGKAPKLLIYAAERCPRILMRCKQDSDCLAGCVCGPNGFCGTPSGVPDRFSGSIDTFSNSASLTISGLKTEDEADYYCQSYDSSHHWVFGGGTKLTVLG
With B12, the TRF signal worked out at 84100 with trypsin [1], 21000 with trypsin [2] and 161000 in the assay with trypsin [3]. This molecule also yielded a Tryspin binding signal (FU) with trypsin [4] of 57700 FU.

B13: KB_B02 (scFv, V domains shown)
VH: EVQLVESGGGLVRPGGSLRLSCAASGFTFSSYAMSWVRQAPGKGLEWVSAISGSGGSTYYADSVKGRFTISRDNTKNSLYLQMTSLRADDTAFYYCVKDFGPGYGTGWFDYWGPGTLVTVSS
VL: AVNWYQQLPGKAPKLLIYAAVGCPRILMRCKQDSDCLAGCVCGPNGFCGTGSGIPERFSGSKSGNTASLTISGLQAEDEGDYYCAAWDDSLSGPVFGGGTKLTVLG
Turning to B13, the values for the TRF signal with trypsin [1], with trypsin [2] and with trypsin [3] were 15900, 2340 and 56600, respectively. In addition, the Tryspin binding signal (FU) with trypsin [4] was determined as 116000 FU.

B14: KB_A03 (scFv, V domains shown)
VH: EVQLVESGGGLVRPGGSLRLSCAASGFTFSSYAMSWVRQAPGKGLEWVSAISGSGGSTYYADSVKGRFTISRDNTKNSLYLQMTSLRADDTAFYYCVKDFGPGYGTGWFDYWGPGTLVTVSS
VL: AVNWYQQLPGKAPKLLINAADRCPRILMRCKQDSDCLAGCVCGPNGFCGTNSGVPDRFSGSSSGNTASLTITGAQAEDEADYYCNSRDSSGNNWVFGGGTKVTVLG
As to B14, the Tryspin binding signal (FU) with trypsin [4] was found to be 28700 FU.

B15: KB_B10 (scFv, V domains shown)
VH: EVQLVESGGGLVRPGGSLRLSCAASGFTFSSYAMSWVRQAPGKGLEWVSAISGSGGSTYYADSVKGRFTISRDNTKNSLYLQMTSLRADDTAFYYCVKDFGPGYGTGWFDYWGPGTLVTVSS
VL: QSVLTQLPSVSEAPRQRVTITCGRAMCPRILMRCKQDSDCLAGCVCGPNGFCGTGNWYQQHPGKAPKLIIFDVSKRPSGVPDRFSASKSGNTASLTISGLQAEDEADYYCNSYTSSNTWVFGGGTQLTVLG
B15 showed a Tryspin binding signal (FU) in the assay with trypsin [4] of 9270 FU.

B16: KB_A06 (scFv, V domains shown)
VH: EVQLVESGGGLVRPGGSLRLSCAASGFTFSSYAMSWVRQAPGKGLEWVSAISGSGGSTYYADSVKGRFTISRDNTKNSLYLQMTSLRADDTAFYYCVKDFGPGYGTGWFDYWGPGTLVTVSS
VL: AVNWYQQLPGKAPKLLIYAAVRCPRILMRCKQDSDCLAGCVCGPNGFCGTPSGIPERFSGSIDRSTNSASLTISGLKTEDEADYYCQSYDSSNLNWVFGGGTKLTVLG
On to B16, for which the TRF signal worked out at 212000 with trypsin [1], 108000 with trypsin [2] and 242000 with trypsin [3]. This molecule also came in with a Tryspin binding signal (FU) with trypsin [4] of 24400 FU.

B17: KB_C08 (scFv, V domains shown)
VH: EVQLVESGGGLVRPGGSLRLSCAASGFTFSSYAMSWVRQAPGKGLEWVSAISGSGGSTYYADSVKGRFTISRDNTKNSLYLQMTSLRADDTAFYYCVKDFGPGYGTGWFDYWGPGTLVTVSS
VL: AVNWYQQLPGKAPKLLIYAAAVCPRILMRCKQDSDCLAGCVCGPNGFCGTRSGIPERFSGSKSGTSAFLAISGLRSEDEADYYCAAWDDSLSGVVFGGGTKLTVLG
Consider B17, for which the TRF signal was found to be 131000 in the assay with trypsin [1], 51100 with trypsin [2] and 183000 with trypsin [3]. This molecule also yielded a Tryspin binding signal (FU) in the assay with trypsin [4] of 76800 FU.

The record behind these values is US11932673.
